This note sets out measurements from patent publication US20180073026, “NOVEL EXPRESSION REGULATING RNA-MOLECULES AND USES THEREOF” (Universität Wien, published 2018).

This series concerns the target RNA polymerase (His6 RNAP; holoenzyme) (Escherichia coli, UniProt P0A7Z4;P0A8V2;P0A8T7;P0A800;P00579 …). Nature of the series: in vitro transcription, reduction of rrnB termination vs Rev #5713, purified RNAP only. Particulars: tags: His6 (Nudler Lab) or holoenzyme from Affymetrix; chain copies: 2,1,1,1,1. The procedure: Transcription reactions were performed in solution. Wild-type E. coli His6 RNAP (Evgeny Nudler Lab) and wild-type E. coli RNAP Holoenzyme (Affymetrix) were used in the assays. […] Then AUC RNA primer (Dharmacon) was added up to 10 μM together with GTP (25 μM) and ATP (25 μM) followed by incubation at 37° C. for 5 minutes. Next, [α-32P]-CTP (800 Ci/mmol, 2 μl, Hartmann Analytic) was added for another 2 min. To minimize RNA degradation 10 U of RNasin® Ribonuclease Inhibitor (Promega) were added to the reaction. For the reactions with Rho and NusG, the purified transcription factors were added in a concentration of up to 0.5 μM to the transcriptional mixtures where indicated, followed by additional incubation at 37° C. for 5 minutes. Chasing reaction was performed with all four NTPs added to a final concentration of 10-50 μM. To prevent re-initiation, rifampicin (Sigma) was added concurrently at this step to a final concentration of 10 μM. At the indicated time points, an aliquot of chase reaction was quenched with 3× Stop Solution, containing 100 mM EDTA, 8M UREA, 0.025% xylenthianol and 0.025% bromophenol blue. The products were separated by 6% denaturing TBE-PAGE (8M urea). […]

B1: RAP #5713 (ssRNA)
RNA: GACAACAUGAGAACAGUUCAGCAGCACUA
For the molecule B1, the activity was over 2 fold.
